Assay results: US10499655B2, “Reagents and methods for inhibiting or disrupting biofilm” (priority 2015, dated 2019)

B1: PsIG protein: Protein from Pseudomonas aeruginosa PAO1, purified PsIG (31-442) of SEQ ID NO.: 2, expressed in E. coli, 47 kDa (protein, listed as Pseudomonas aeruginosa)
chain: EIQVLKAPRAVVWKDFLGVNAQFLWFSPERYNKQIDRLQDLGLEWVRLDLHWDRLETAEDQYQLASLDQLVKDLEARQLKSVFYLVGSARFITTAPFYSPFQDQYPPRDPEVFARRMAMLSQRYPSVAAWQVWNEPNLIGFWRPKADPEGYAKLLQASTIALRMVDPEKPVVSAGMAFFSEMPDGRTMFDALGHLGVESLGTIATYHPYTQLPEGNYPWNLDFVSHANQINRALRNAGVPAIWSTEWGWSAYKGPKELQDIIGVEGQADYVLRRLALMSALDYDRIFLFTLSDLDQRASVRDRDYGLLDLDANPKPVYLALQRFLKVTGPKLRPADPPVTEDLPDGSFSIGWTREDGRNVWLFWSARGGNVRLPKLKEATLHDPLSGKVTPLSGSDGLEVPVKSSLQMLVWE

Assays:
[1] = test system: Pseudomonas aeruginosa; test: MIC test strips on bacteria dispersed from a biofilm by PsIG versus planktonic bacteria; format: cell-based; settings: 24-hour biofilm treated with PsIG 1 hour; MIC read after 16 hours at 37 degrees centigrade
Description: Planktonic Pseudomonas aeruginosa may be cultured for 24 hours with shocking in LBNS medium, and 0.2 ml of such culture may be used as control. As shown in FIGS. 8(a) and 8(c), a control group have shown measurement of MIC values of TOB, CIP by a planktonic bacteria. FIGS. 8(b) and 8(d) have shown measurement of MIC values of TOB, CIP by bacteria cells dispersed from the biofilm after the treatment of the PsIG protein.

[2] = test system: L4-stage Caenorhabditis elegans; test: Toxicity of PsIG-dispersed biofilm bacteria to C. elegans; format: in vivo; settings: co-incubated 25 degrees centigrade, 48 hours; live/dead nematodes
Description: The experiment may be carried out by using C. elegans as a host model.
Two experimental groups may be set for Experimental group 1 and Experimental group 2, respectively.
Experiment group 1: the bacterial cells collected from a PsIG-treated bacterial biofilm (a biofilm of Pseudomonas aeruginosa) may be co-incubated with L4-stage Caenorhabditis elegans.
Experimental group 2: co-incubation the planktonic culture of Pseudomonas aeruginosa grown for 24 hours may be co-incubated L4-stage Caenorhabditis elegans.
Experimental group 1 and Experimental group 2 were placed in 96-well plates respectively and co-incubated at 25 degrees centigrade for 48 hours. […] Each group was repeated for three times, the results are expressed with a format of the mean value±SD value.

[3] = test system: Pseudomonas aeruginosa; test: Inhibitory zone on LBNS plate with filter paper; format: cell-based; settings: 50 nM PsIG; 24 hours at 37 degrees centigrade
Description: As shown in FIG. 9(a), four experimental groups may be set for buffer; 50 nM PsIG; tobramycin (TOB); combination of TOB and PsIG, respectively. Experiment 2:
As shown in FIG. 9(b), four experimental groups may be set for buffer; 50 nM PsIG; ciprofloxacin (CIP); combination of CIP and PsIG, respectively.

[4] = Degradation of PsI polysaccharide in vitro, immunoblotting; format: biochemical, Pseudomonas aeruginosa; settings: 50 nM PsIG
Source text: Preparation and purification of PsI polysaccharide may be carried out with reference to published document (Molecular Microbiology 2009; 73:622-638, titled Genetic and biochemical analyses of the Pseudomonas aeruginosa PsI exopolysaccharide reveal overlapping roles for polysaccharide synthesis enzymes in PsI and LPS production, written by Byrd M S, Sadovskaya I, Vinogradov E et al.)
The standard curve may be prepared according to the following method: PsI polysaccharide prepared by the above method may be diluted 10 times with gradient and the PsI polysaccharide may be detected by immunoblotting.
To Solution 1 (PBS phosphate buffer), PsI polysaccharide and 50 nM of the PsIG protein obtained in Example 16 may be added to obtain Reaction system 1, the concentration of PsI polysaccharide in reaction system 1 may be 4 mg/ml, and the concentration of PsIG protein may be 50 nM. The eight same reaction systems 1 may be incubated at 20 degrees centigrade, 25 degrees centigrade, 30 degrees centigrade, 37 degrees centigrade, 40 degrees centigrade, 45 degrees centigrade, 50 degrees centigrade and 55 degrees centigrade for one hour, respectively, and then remaining PsI polysaccharide may be detected with a PsI polysaccharide antibody (the PsI polysaccharide antibody may be obtained by using PsI polysaccharide as immunogen) by immunoblotting. […]

[5] = test system: Caco2; settings: PsIG treatment 12 hours
Source text: (§1) Cytotoxicity of a PsIG protein may be detected by human colon epithelial cell line Caco2 and HT-29.

[6] = test system: HT-29; settings: PsIG treatment 12 hours
Source text: as §1

[7] = test system: PAO1 biofilm; test: Clearance of PsIG-treated biofilm by macrophages, CFU count; format: cell-based, Pseudomonas aeruginosa; settings: biofilm treated with PsIG 1 hour, then macrophages 2 hours; versus controls without PsIG
Description: The PAO1 biofilm cultured on glass coverslips for 24 hours was treated with PsIG and co-incubated with macrophages, and then scraped and resuspended in 1 ml of physiological saline to quantify colony formation unit (CFU). The mean and SD values of CFU obtained by three repeated experiments were shown in the figure and T test (*, P<0.01) was performed for different experimental groups.
The PAO1 biofilm cultured on glass coverslips for 24-hours may be treated with the PsIG protein for 1 hour, and then incubated with macrophages for 2 hours, and remaining biofilm may be scraped and resuspended in 1 ml of physiological saline for colony formation unit (CFU).

[8] = test system: mouse macrophages (RAW264.7)
[9] = test system: biofilm of Pseudomonas aeruginosa; test: Inhibition of biofilm formation, crystal violet staining, 96-well plate; format: cell-based
Source text: (§2) The biomass of the biofilm has been detected by a crystal violet staining method. The method including: discarding cultures (bacteria that are not attached on wells.) in the wells, and washing three times. Then, the biofilm may be stained with 0.1% crystal violet, and washed three times, then the crystal violet combined in the biofilm may be dissolved with 30% acetic acid, and the value of OD560 thereof (for example, the concentration of the crystal violet) may be measured by a spectrophotometer to measure the biomass of the biofilm was measured. PAO1-derived PsI polysaccharide negative strain (PAO1, A psi) may be used as a negative control, and PAO1-derived PsI polysaccharide inducible strain (PAO1, PBAD-psI) (arabinose used as an inducer) may be used as positive control.
A fresh single colony of Pseudomonas aeruginosa on the LBNS plate may be inoculated in LBNS liquid medium, carried out shake culture at 200 rpm at 37 degrees centigrade for 12 hours, and then inoculated in Jensen's medium with 1% inoculum dose, at the same time, different concentrations of PsIG protein may be added. After static culture in a 96-well plate at 30 degrees centigrade for 24 hours, liquid cultures were discarded and the biofilm may be stained with the crystal violet, and biomass of the biofilm was detected, in which specific operations may refer to the steps in Example 1. […]

[10] = test system: formed biofilm of Pseudomonas aeruginosa; test: Disruption of formed biofilm, crystal violet staining; format: cell-based
Source text: as §2
A fresh single colony of Pseudomonas aeruginosa on the LBNS plate may be inoculated in LBNS liquid medium, carried out shake culture at 200 rpm at 37 degrees centigrade for 12 hours, and then inoculated in Jensen's media with 1% inoculum dose, with static culture in a 96-well plate at 30 degrees centigrade for 24 hours. Cultures may be discarded and the biofilm (surface-attached bacteria) was washed with 0.8% physiological saline for three times. 100 μl Jensen's media containing 1 nM PsIG may be added into wells and the biofilm treated for 5 or 30 minutes. Then, biomass of the treated biofilm may be detected by the crystal violet staining method, in which specific operation steps of the crystal violet staining method may refer to Example 2.
At the same time, Jensen's media without addition of PsIG may be used as a control group.
A fresh single colony of Pseudomonas aeruginosa on the LBNS plate may be inoculated in LBNS liquid medium, carried out shake culture at 200 rpm at 37 degrees centigrade for 12 hours, and then inoculated in Jensen's media with 1% inoculum dose, and carried out static culture in a 96-well plate at 30 degrees centigrade for 24 hours. Cultures were discarded and the biofilm was washed with 0.8% physiological saline for three times. 100 μl Jensen's media containing 50 nM PsIG protein was added and the biofilm was treated for different times. Then, biomass of the treated biofilms may be tested by a crystal violet staining method, in which specific operation steps of the crystal violet staining method may refer to Example 2.

[11] = test system: biofilm of Pseudomonas syringae; test: Inhibition of biofilm formation, crystal violet staining; format: cell-based; settings: 50 nM PsIG
[12] = test system: biofilm of Pseudomonas aeruginosa on implants; test: Mouse implant infection model; format: in vivo; settings: mouse peritoneum, local treatment, 24 hours; 50 nM PsIG and/or 50 mg kg-1 tobramycin
Description: FIG. 12 illustrates a mouse implant infections model. PsIG improves host clearance of implant biofilms and show combinatory effect with Tob in eradication of implant biofilms in vivo. The horizontal dashed line represents a detection limit of the experiment, which is shown as mean (*P<0.01) of the biofilm counts in five mice.
Implants coated by the biofilm of Pseudomonas aeruginosa may be inserted into mouse peritoneum and the following treatments may be performed locally: 50 nM PsIG treatment alone; 50 mg kg-1 tobramycin treatment alone; the 50 nM PsIG and the 50 mg kg-1 tobramycin co-treatment. After culture in vivo for 24 hours, mice may be sacrificed so as to harvest the implants, and the implants may be removed out and counted on LB plates after homogenization. The number of Pseudomonas aeruginosa on the implants may be tabulated with a format of CFU/ml.

| Molecule | MIC values for bacteria dispersed from biofilms by PsIG compared with planktonic cells [1] | toxicity of PsIG-dispersed biofilm bacteria versus planktonic bacteria [2] | inhibitory zone, PsIG alone [3] | temperature of highest degradation rate of PsI polysaccharide ([4]; 4 mg/ml PsI, one hour) [degrees centigrade] | reduction of amount of PsI polysaccharide compared with untreated control ([4]; 30 degrees centigrade, 1 hour) [%] | effect on activity of colon epithelial cells (MTT) [5] | effect on activity of colon epithelial cells (MTT) [6] | number of remaining bacteria of the biofilm [7] | toxic effects on macrophages [8] | inhibitory rate on biofilm formation ([9]; PsIG protein at 1 nM, static culture 30 degrees centigrade, 24 hours) [%] | inhibition of formation of the biofilm ([9]; concentration l0nm-50nm, static culture 24 hours) | reduction of biomass of formed biofilm ([10]; 1 nM PsIG, treated 30 minutes, 24-hour biofilm) [%] | effect on biomass of formed biofilm ([10]; 1 nM PsIG, treated five minutes, 24-hour biofilm) | reduction of biomass of formed biofilm ([10]; 50 nM PsIG, treated 10 minutes, 24-hour biofilm) [%] | effect on biomass of formed biofilm ([10]; 50 nM PsIG, treated 30 minutes, 24-hour biofilm) | effect on biomass of formed biofilm ([10]; 50 nM PsIG, treated five minutes, 24-hour biofilm) | effect on biomass of formed biofilm ([10]; 50 nM PsIG, treated more than 30 minutes) | inhibitory effect on biofilm [11] | number of bacteria on the implants [12] |
| --- | --- | --- | --- | --- | --- | --- | --- | --- | --- | --- | --- | --- | --- | --- | --- | --- | --- | --- | --- |
| O=C(O)c1cn(C2CC2)c2cc(N3CCNCC3)c(F)cc2c1=O [ciprofloxacin] | lower |  |  |  |  |  |  |  |  |  |  |  |  |  |  |  |  |  |  |
| NC[C@H]1O[C@H](O[C@H]2[C@H](O)[C@@H](O[C@H]3O[C@H](CO)[C@@H](O)[C@H](N)[C@H]3O)[C@H](N)C[C@@H]2N)[C@H](N)C[C@@H]1O [tobramycin] | lower |  |  |  |  |  |  |  |  |  |  |  |  |  |  |  |  |  |  |
| B1 |  | no significant difference in toxicity | does not produce inhibitory zone | 45 | 75 | no effect | no effect | least | not shown any toxic effects | 50 | significantly inhibit | 50 | no effect | 50 | reduced to a level similar to the PsI polysaccharide-negative strain | significantly reduced | no more significant reduction | same inhibitory effects | ≈ 10^3 CFU/mL |
